# Measurements: EP2717941B1 (TLA Targeted Immunotherapies AB, dated 2020)
# Groups on a side chain read outwards from the residue. *: point of attachment. Biotin = O=C1N[C@H]2[C@H](CS[C@H]2CCCCC(=O)*)N1; PEG = not defined here
# T1: CCR4 (human, UniProt P51679 1-360)
# T1 sequence (looked up): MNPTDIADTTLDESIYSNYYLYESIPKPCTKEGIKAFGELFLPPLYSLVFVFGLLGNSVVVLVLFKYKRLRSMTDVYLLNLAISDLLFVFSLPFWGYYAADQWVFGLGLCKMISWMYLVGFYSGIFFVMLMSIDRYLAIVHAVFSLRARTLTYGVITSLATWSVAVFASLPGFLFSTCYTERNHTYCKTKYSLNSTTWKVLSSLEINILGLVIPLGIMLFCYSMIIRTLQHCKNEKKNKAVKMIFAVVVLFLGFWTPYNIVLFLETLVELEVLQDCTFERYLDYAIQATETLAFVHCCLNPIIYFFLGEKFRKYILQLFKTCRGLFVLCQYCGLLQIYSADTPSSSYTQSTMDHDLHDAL
# T2: chemokine receptor CCR7 (human, UniProt P32248 25-378)
# T2 sequence (looked up): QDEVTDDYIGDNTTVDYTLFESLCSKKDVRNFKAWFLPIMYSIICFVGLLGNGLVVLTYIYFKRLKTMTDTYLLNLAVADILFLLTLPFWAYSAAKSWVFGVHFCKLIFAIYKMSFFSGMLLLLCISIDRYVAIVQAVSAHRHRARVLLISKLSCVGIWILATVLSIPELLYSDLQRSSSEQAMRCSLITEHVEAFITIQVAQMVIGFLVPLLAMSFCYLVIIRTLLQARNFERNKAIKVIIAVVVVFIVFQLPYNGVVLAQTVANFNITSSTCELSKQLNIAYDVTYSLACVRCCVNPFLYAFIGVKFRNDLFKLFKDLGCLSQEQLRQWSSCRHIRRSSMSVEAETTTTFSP
# T3: hCXCR3 (human, UniProt P49682 1-368)
# T3 sequence (looked up): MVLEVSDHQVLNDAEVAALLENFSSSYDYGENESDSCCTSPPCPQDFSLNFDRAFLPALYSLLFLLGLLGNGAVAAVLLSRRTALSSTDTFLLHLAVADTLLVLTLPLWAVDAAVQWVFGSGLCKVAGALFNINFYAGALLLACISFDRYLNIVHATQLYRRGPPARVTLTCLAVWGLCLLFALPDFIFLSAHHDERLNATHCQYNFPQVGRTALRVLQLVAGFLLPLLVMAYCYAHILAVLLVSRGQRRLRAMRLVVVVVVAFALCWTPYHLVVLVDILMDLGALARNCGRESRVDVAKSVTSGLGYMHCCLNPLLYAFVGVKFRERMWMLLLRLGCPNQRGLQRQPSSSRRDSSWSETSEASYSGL
# T4: hCCR10 (human, UniProt P46092 1-362)
# T4 sequence (looked up): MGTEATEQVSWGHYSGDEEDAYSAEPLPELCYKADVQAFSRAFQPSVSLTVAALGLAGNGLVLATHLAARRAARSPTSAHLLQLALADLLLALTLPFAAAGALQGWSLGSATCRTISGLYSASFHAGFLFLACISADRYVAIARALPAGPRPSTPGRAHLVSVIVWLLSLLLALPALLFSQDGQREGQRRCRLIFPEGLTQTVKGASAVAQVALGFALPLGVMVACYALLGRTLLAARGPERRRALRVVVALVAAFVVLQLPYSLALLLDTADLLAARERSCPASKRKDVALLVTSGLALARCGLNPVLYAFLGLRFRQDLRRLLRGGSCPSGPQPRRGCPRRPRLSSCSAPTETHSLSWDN
# B1: biotinTARC (CCL17), TARC derivatised at the ε-amino side chain functionality of Lys(72) with PEG-Biotin (ligand)
# chain: ARGTNVGRECCLEYFKGAIPLRKLKTWYQTSEDCSRDAIVFVTVQGRAICSDPNNKRVKNAVKYLQSLERSK([PEG-Biotin])-NH2
# modifications: ends and bridges not checked; also: TFA salt
# B2: biotinMIP-3β (CCL19), MIP-3β derivatised at the ε-amino side chain functionality of Lys(78) with Biotin (ligand)
# chain: GTNDAEDCCLSVTQKPIPGYIVRNFHYLLIKDGCRVPAVVFTTLRGRQLCAPPDQPWVERIIQRLQRTSAKMKRRSSX
# modifications: additional Lys(78) = K(Biotin); assembled on Rink Amide resin (C-terminal amide)
# B3: biotinRANTES (CCL5), RANTES derivatised at the ε-amino side chain functionality of Lys(67) with Biotin (ligand)
# chain: SPYSSDTTPCCFAYIARPLPRAHIKEYFYTSGKCSNPAVVFVTRKNRQVCANPEKKWVREYINSLEK(Biotin)S
# modifications: ends and bridges not checked
# B4: biotinITAC (CXCL11), ITAC derivatised with Biotin at the ε-amino side chain functionality of an additional Lysine inserted at the C-terminus after a PEG spacer (ligand)
# chain: FPMFKRGRCLCIGPGVKAVKVADIEKASIMYPSNNCDKIEVIITLKENKGQRCLNPKSKQARLIIKKVERKNFX
# modifications: X (position 74) is PEG-K(Biotin): PEG spacer between the protein's C-terminus and an additional biotinylated lysine
# B5: biotinCTAC (CCL27), CTAC derivatised at the ε-amino side chain functionality of Lys(87) with PEG-Biotin (ligand)
# chain: FLLPPSTACCTQLYRKPLSDKLLRKVIQVELQEADGDCHLQAFVLHLAQRSICIHPQNPSLSQWFEHQERKLHGTLPKLNFGMLRKK([PEG-Biotin])G
# modifications: ends and bridges not checked
# B6: biotinMDC (CCL22), MDC derivatised at the ε-amino side chain functionality of Lys(66) with PEG-Biotin (ligand)
# chain: GPYGANMEDSVCCRDYVRYRLPLRVVKHFYWTSDSCPRPGVVLLTFRDKEICADPRVPWVKMILNK([PEG-Biotin])LSQ-NH2
# modifications: ends and bridges not checked
# Tests used:
# Test in all cases: cell-based or functional assay
# [1] = target: T1, CCR4
# [2] = target: T2, chemokine receptor CCR7
# [3] = target: hCCR5 (human, UniProt P51681 1-352)
# hCCR5, sequence (P51681 whole entry): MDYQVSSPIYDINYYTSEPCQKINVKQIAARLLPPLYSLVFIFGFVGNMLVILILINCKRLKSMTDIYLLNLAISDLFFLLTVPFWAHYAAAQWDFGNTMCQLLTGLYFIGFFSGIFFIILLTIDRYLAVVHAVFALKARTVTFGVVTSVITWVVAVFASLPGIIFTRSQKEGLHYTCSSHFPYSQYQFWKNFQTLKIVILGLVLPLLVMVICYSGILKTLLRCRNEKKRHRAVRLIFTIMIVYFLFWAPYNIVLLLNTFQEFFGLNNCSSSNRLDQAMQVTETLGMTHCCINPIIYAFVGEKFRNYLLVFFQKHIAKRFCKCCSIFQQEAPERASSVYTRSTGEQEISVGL
# [4] = target: T3, hCXCR3
# [5] = target: T4, hCCR10
binder,measurement,setting,value
B1,"EC50, agonist activity, Aequorin assay",[1],3.1 nM
B2,"EC50, agonist activity, Aequorin assay",[2],11 nM
B3,"EC50, agonist activity, Aequorin assay",[3],0.5 nM
B4,"EC50, agonist activity, Aequorin assay",[4],15.7 nM
B5,"EC50, agonist activity, Aequorin assay",[5],49.4 nM
B6,"EC50, agonist activity, Aequorin assay",[1],4.5 nM
